Test results published in publication PMC6630525 (Molecules, 2019).
Where “and” joins values, the source holds several entries; their conditions need not be identical. Equal values may be shown once.

How the values were obtained:
[1] = target: the molecule itself; experiment: AUC; sedimentation velocity, 40,000 rpm, 20 °C, samples diluted in SEC buffer to OD280 0.5; c(s) distribution and non-interacting species model
[2] = target: the molecule itself; experiment: SAXS; ESRF BM29, samples at 5, 3 and 2 mg/mL, 10 °C; molecular mass estimated with ATSAS
[3] = target: the molecule itself; experiment: SEC; analytical gel filtration, Superdex 200 10/300 GL, 4 °C, 20 mM Tris-HCl with 0.2, 0.5 or 2.0 M NaCl after dialysis into the same buffer

Protein | stoichiometry N [1] | further results
full-length Arabidopsis thaliana NAP1-Related Protein 2 (AtNRP2-His) (natural protein, UniProt Q8LC68-2 1-256, looked up, NAP1-related protein 2 (AtNRP2), Arabidopsis thaliana; full-length ORF optimised for bacterial expression (Genscript) in pET22b(+) between NdeI and XhoI; Predominantly a dimer in solution; tetramer and a higher species also seen by AUC; also called full-length AtNRP2; not shown: His6, C-terminal, kept) MVTDKSKKAKTEEENVEQIDAELVLSIEKLQEIQDDLEKINEKASDEVLEVEQKYNVIRKPVYDKRNEIIKTIPDFWLTAFLSHPALGELLTEEDQKIFKYLSSLDVEDAKDVKSGYSITFSFNPNPFFEDGKLTKTFTFLEEGTTKITATPIKWKEGKGLANGVNHEKNGNKRALPEESFFTWFSDAQHKEDVEDEMQDEQVADIIKEDLWPNPLTYFNNDADEEDFDGDDDGDEEEKEGDSDEDDDEEDEVGEE | 2 and 4 | –
AtNRP2 NT/CT (AtNRP2 residues 14-223) (domain or fragment, Arabidopsis thaliana, UniProt Q8LC68-2 14-223, looked up, NAP1-related protein 2 (AtNRP2), Arabidopsis thaliana, residues 14-223 (first 13 and last 35 residues removed), in pGEX-6P-1 between BamHI and SalI; A few vector residues may remain at the N-terminus after PreScission cleavage (surmise); Heated at 40 °C for 10 min before crystallization; also called AtNRP2_(14-223); GST-AtNRP2_(14-223); not shown: GST, N-terminal, cleaved) ENVEQIDAELVLSIEKLQEIQDDLEKINEKASDEVLEVEQKYNVIRKPVYDKRNEIIKTIPDFWLTAFLSHPALGELLTEEDQKIFKYLSSLDVEDAKDVKSGYSITFSFNPNPFFEDGKLTKTFTFLEEGTTKITATPIKWKEGKGLANGVNHEKNGNKRALPEESFFTWFSDAQHKEDVEDEMQDEQVADIIKEDLWPNPLTYFNNDA | 2 | –
AtNRP1 NT/CT (AtNRP1 residues 14-226) (domain or fragment, Arabidopsis thaliana, UniProt Q9CA59 14-226, looked up, NAP1-related protein 1 (AtNRP1), Arabidopsis thaliana, residues 14-226, in pGEX-6P-1 between BamHI and SalI; A few vector residues may remain at the N-terminus after PreScission cleavage (surmise); also called AtNRP1_(14-226); GST-AtNRP1_(14-226); not shown: GST, N-terminal, cleaved) KGEEENLEQIDAELVLSIEKLQEIQDDLEKINEKASDEVLEVEQKYNVIRKPVYDKRNEVIQSIPGFWMTAFLSHPALGDLLTEEDQKIFKYLNSLEVEDAKDVKSGYSITFHFTSNPFFEDAKLTKTFTFLEEGTTKITATPIKWKEGKGLPNGVNHDDKKGNKRALPEESFFTWFTDAQHKEDAGDEIHDEVADIIKEDLWSNPLTYFNND | – | stoichiometry N [2]: 2
full-length Arabidopsis thaliana NAP1-Related Protein 1 (AtNRP1-His) (natural protein, UniProt Q9CA59 1-256, looked up, NAP1-related protein 1 (AtNRP1), Arabidopsis thaliana; full-length ORF optimised for bacterial expression (Genscript) in pET22b(+) between NdeI and XhoI; also called full-length AtNRP1; not shown: His6, C-terminal, kept) MVADKSKKSKIEEKGEEENLEQIDAELVLSIEKLQEIQDDLEKINEKASDEVLEVEQKYNVIRKPVYDKRNEVIQSIPGFWMTAFLSHPALGDLLTEEDQKIFKYLNSLEVEDAKDVKSGYSITFHFTSNPFFEDAKLTKTFTFLEEGTTKITATPIKWKEGKGLPNGVNHDDKKGNKRALPEESFFTWFTDAQHKEDAGDEIHDEVADIIKEDLWSNPLTYFNNDADEEDFDGDDDGDEEGEEDDDDEEEEDGEE | – | binding result [3]: binds
